Experimental data from patent US20110190142A1, “DETERMINATION OF RENIN-PRORENIN RECEPTOR ACTIVITY” (Charite- Universitatsmedizin Berlin, priority 2006, published 2011).

How the values were obtained:
HEK293 cells [1] = assay: Number of viable cells (ATP concentration); format: cell-based, human; settings: for increase of viable cell number compared to vehicle: HEK293 cells, 5 nM, 24 hours
Description: (§1) For all cell culture studies immortalized human epithelial kidney cells (HEK293 cells) were used. […] Additional inhibition with 1 μM aliskiren was performed as indicated. 1 hour after pre-treatment with losartan±aliskiren cells were stimulated with either 5 nM renin, 5 nM prorenin, or the respective vehicle. Cells were harvested for mRNA expression analysis or determination of viable cell number and apoptosis after 3 or 24 hours, respectively. These experimental procedures have been described in detail previously (Schefe et al., 2006). All experiments were performed in independent triplicates.

[2] = tested on: renin/prorenin receptor (RER); assay: PI3K-p85α mRNA by quantitative real-time PCR after renin/prorenin stimulation of HEK293 cells; format: cell-based, human
Description: (§2) HEK293 cells were seeded in 24-well plates and transfected with either 100 ng of pCEP4-PLZF-myc expression vector, 50 ng of indicated pGL3-basic construct and 10 ng of phRL-null plasmid (for luciferase assay), or 100 ng of pCEP4-PLZF-myc alone (for PCR experiments) per well as described above. siRNA transfection, renin stimulation and determination of reporter activity were performed as described above, except for an exceeded renin stimulation period of 3 hours.
(§3) RNA isolation and cDNA synthesis were performed as described above. qPCR was performed applying a SYBR Green I reaction mix and run on a Stratagene Mx3000P (Stratagene, La Jolla, Calif., USA) using the following primers: […]
(§4) Data represents the mean expression level±standard deviation (standardized to 18S rRNA expression) calculated according to the ddCT method of at least three independent measurements. Equality of PCR efficiencies has been verified applying the program LinRegPCR (Ramakers et al. 2003) and ANOVA testing.
as §1

HEK293 cells [3] = assay: Caspase 3/7 activity as a measure of apoptosis; format: cell-based, human; settings: for reduction of caspase 3/7 activity: HEK293 cells, 5 nM, 24 hours
Description: as §1

[4] = molecular target: endogenous human RER of HEK293 cells (human) (UniProt O75787); assay: cell-based or functional assay
Sequence of endogenous human RER of HEK293 cells (human) (O75787 17-350): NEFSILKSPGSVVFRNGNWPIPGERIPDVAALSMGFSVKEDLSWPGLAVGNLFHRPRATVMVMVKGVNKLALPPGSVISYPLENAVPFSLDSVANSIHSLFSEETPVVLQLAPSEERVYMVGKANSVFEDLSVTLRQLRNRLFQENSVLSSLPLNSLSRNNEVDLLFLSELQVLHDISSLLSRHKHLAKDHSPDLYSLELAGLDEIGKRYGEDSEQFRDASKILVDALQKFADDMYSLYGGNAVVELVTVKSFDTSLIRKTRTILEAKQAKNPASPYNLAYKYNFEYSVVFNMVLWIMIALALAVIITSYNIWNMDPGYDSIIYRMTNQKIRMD

[5] = tested on: renin/prorenin receptor (RER); assay: RER mRNA by quantitative real-time PCR after renin/prorenin stimulation of HEK293 cells; format: cell-based, human
Description: as §2, §3, §4, §1

[6] = molecular target: T1, PLZF (promyelocytic zinc finger protein, ZBTB16), endogenous (Homo sapiens, UniProt Q05516 Q05516:1-673); assay: ChIP-qPCR in HEK293; about 6-fold increased recruitment to the RER promoter region around the element after renin vs vehicle; settings: tags: none (endogenous, HEK293)
T1 sequence: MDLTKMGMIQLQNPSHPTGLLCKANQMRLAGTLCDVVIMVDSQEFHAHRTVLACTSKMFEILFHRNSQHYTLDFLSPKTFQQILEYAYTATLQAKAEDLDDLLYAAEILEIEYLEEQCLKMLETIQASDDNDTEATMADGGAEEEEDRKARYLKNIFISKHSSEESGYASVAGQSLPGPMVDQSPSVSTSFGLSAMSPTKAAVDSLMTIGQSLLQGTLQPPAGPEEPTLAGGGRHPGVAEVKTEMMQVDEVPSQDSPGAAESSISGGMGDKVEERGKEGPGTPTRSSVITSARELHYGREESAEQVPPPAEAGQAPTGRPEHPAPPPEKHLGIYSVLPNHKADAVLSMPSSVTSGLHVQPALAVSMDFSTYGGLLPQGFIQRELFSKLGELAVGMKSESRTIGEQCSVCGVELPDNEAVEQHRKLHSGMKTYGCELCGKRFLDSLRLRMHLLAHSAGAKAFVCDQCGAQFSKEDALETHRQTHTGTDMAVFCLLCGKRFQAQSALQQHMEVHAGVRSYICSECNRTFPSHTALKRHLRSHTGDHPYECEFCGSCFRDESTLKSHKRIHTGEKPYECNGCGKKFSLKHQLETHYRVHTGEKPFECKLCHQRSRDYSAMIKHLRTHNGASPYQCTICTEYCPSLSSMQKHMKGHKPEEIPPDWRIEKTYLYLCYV

[7] = tested on: renin/prorenin receptor (RER); assay: RER promoter luciferase reporter assay under renin stimulation; format: cell-based, human; settings: PLZF-overexpressing HEK293 cells, renin vs all controls
Description: (§5) The indicated cell types were seeded on day 1 in 12-well plates. 100 ng of indicated pGL3-basic constructs (encoding firefly luciferase) and 20 ng of phRL-null plasmid (encoding humanized Renilla luciferase for standardization of promoter activity; Promega) per well were transfected on day 2 at 60-80% confluency using GeneJuice (Merck Biosciences, Bad Soden, Germany) according to the manufacturer's protocol. Cells were harvested 48 hours after transfection using Passive Lysis Buffer (Promega). Reporter activities were measured in a Pharmingen Monolight 3010 luminometer (BD Biosciences, Erembodegem, Belgium) using the Dual-Luciferase Reporter Assay System (Promega). Promoter activity is expressed as relative luciferase activity (RLA) (Funke-Kaiser et al., 2003a). RLA data represent the mean±standard deviation of at least three single, parallel transfection experiments.
as §2

[8] = tested on: renin/prorenin receptor (RER); assay: PI3K-p85α promoter luciferase reporter assay under renin stimulation; format: cell-based, human; settings: PLZF-overexpressing HEK293 cells, renin vs control
Description: as §5, §2

[9] = tested on: renin/prorenin receptor (RER); assay: PLZF translocation, fractionated extraction of cytosolic and nuclear proteins and Western blot; format: cell-based, human; settings: HEK293 cells, c-myc-tagged PLZF, 10 nM renin
Description: Cytosolic and membrane proteins were isolated using the ProteoExtract Subcellular Proteome Extraction Kit (Calbiochem, Darmstadt, Germany). A fractionated extraction of cytosolic and nuclear proteins was performed as described previously (Funke-Kaiser et al., 2003a). Protein concentrations were determined using the DC Protein Assay (Bio-Rad, München, Germany). Cytosolic, membrane and nuclear fractions were controlled by Western blot using antibodies against Akt (mouse monoclonal, 5G3; 1:1,000; Cell Signalling, Danvers, Mass., USA), angiotensin AT1 receptor (rabbit polyclonal, sc-579; 1:2,000; Santa Cruz Biotechnology, Heidelberg, Germany) and TBP (rabbit polyclonal, sc-204; 1:1,000; Santa Cruz Biotechnology), respectively.
For PLZF translocation experiments HEK293 cells were seeded on day 1 in 6-well plates. 250 ng of pCEP4-PLZF-myc expression vector per well were transfected on day 2 at 40-60% confluency using GeneJuice (Merck Biosciences, Bad Soden, Germany) according to the manufacturer's protocol. […] Chemoluminescence was detected with ECL (Amersham, München, Germany), and subsequent exposition to Hyperfilm (Amersham).

[10] = HEK293 cells transfected with scrambled control siRNA
[11] = HEK293 cells, 5 nM, 3 hours, 1 μM losartan pre-treatment

B1: prorenin (ligand, UniProt P00797 24-406, looked up, species assumed)
pro-form: LPTDTTTFKRIFLKRMPSIRESLKERGVDMARLGPEWSQPMKRLTLGNTTSSVILTNYMDTQYYGEIGIGTPPQTFKVVFDTGSSNVWVPSSKCSRLYTACVYHKLFDASDSSSYKHNGTELTLRYSTGTVSGFLSQDIITVGGITVTQMFGEVTEMPALPFMLAEFDGVVGMGFIEQAIGRVTPIFDNIISQGVLKEDVFSFYYNRDSENSQSLGGQIVLGGSDPQHYEGNFHYINLIKTGVWQIQMKGVSVGSSTLLCEDGCLALVDTGASYISGSTSSIEKLMEALGAKKRLFDYVVKCNEGPTLPDISFHLGGKEYTLTSADYVFQESYSSKKLCTLAIHAMDIPPPTGPTWALGATFIRKFYTEFDRRNNRIGFALAR
modifications: pro-form
- increase of viable cell number (HEK293 cells [1]; [10]): 87.5%
- increase of viable cell number compared to vehicle (HEK293 cells [1]): 123.8%
- PI3K-p85α mRNA, % of vehicle control [2, 10]: 212.8%
- PI3K-p85α mRNA, % of vehicle control [2, 11]: 175.8%
- attenuation of caspase 3/7 activity (HEK293 cells [3]; [10]): 53.4%
- reduction of caspase 3/7 activity (HEK293 cells [3]): 35.7%
- PI3K-p85α mRNA after 3 hours, 5 nM prorenin, HEK293 cells (% of vehicle control) [4]: 176
- PI3K-p85α mRNA, prorenin, HEK293 cells with scrambled control siRNA (% of vehicle control) [4]: 213
- RER mRNA after 3 hours, 5 nM prorenin, HEK293 cells (% of vehicle control) [4]: 63.6
- RER mRNA, prorenin, HEK293 cells with scrambled control siRNA (% of vehicle control) [4]: 59.7
- caspase 3/7 activity after 24 hours, 5 nM prorenin, HEK293 cells [4]: 35.7 % decrease
- caspase 3/7 activity, prorenin, HEK293 cells with scrambled control siRNA [4]: 53.4 % decrease
- viable cell number after 24 hours, 5 nM prorenin, HEK293 cells [4]: 124 % increase
- viable cell number, prorenin, HEK293 cells with scrambled control siRNA [4]: 87.5 % increase
- RER mRNA, % of vehicle control [5, 10]: 59.7%
- RER mRNA, % of vehicle control [5, 11]: 63.6%

B2: RER promoter PLZF element, native (dsDNA)
DNA 1: CTTAACTACAGTTTTCACTGG
DNA 2: CCAGTGAAAACTGTAGTTAAG
- binding signal [6]: 6 fold

B3: human recombinant renin (mammalian expression) (ligand, UniProt P00797 67-406, looked up)
chain: LTLGNTTSSVILTNYMDTQYYGEIGIGTPPQTFKVVFDTGSSNVWVPSSKCSRLYTACVYHKLFDASDSSSYKHNGTELTLRYSTGTVSGFLSQDIITVGGITVTQMFGEVTEMPALPFMLAEFDGVVGMGFIEQAIGRVTPIFDNIISQGVLKEDVFSFYYNRDSENSQSLGGQIVLGGSDPQHYEGNFHYINLIKTGVWQIQMKGVSVGSSTLLCEDGCLALVDTGASYISGSTSSIEKLMEALGAKKRLFDYVVKCNEGPTLPDISFHLGGKEYTLTSADYVFQESYSSKKLCTLAIHAMDIPPPTGPTWALGATFIRKFYTEFDRRNNRIGFALAR
- decrease in the activity of a wild type RER promoter [7]: about 30%
- increase of viable cell number compared to vehicle (HEK293 cells [1]): 103.6%
- increase of PI3K-p85α mRNA relative to vehicle control ([2]; HEK293 cells with PLZF overexpression): 105.2±6.74%
- increase of PI3K-p85α mRNA relative to vehicle control ([2]; HEK293 cells without PLZF overexpression): 30.2±7.9%
- PI3K-p85α mRNA, % of vehicle control [2, 11]: 171.8%
- increase in PI3K-p85α promoter activity [8]: 45%
- translocation of PLZF from the cytoplasm to the nucleus [9]: clear increase in nuclear PLZF
- reduction of caspase 3/7 activity (HEK293 cells [3]): 31%
- PI3K-p85α mRNA (real-time PCR), HEK293 cells with PLZF overexpression [4]: 105 % increase
- PI3K-p85α mRNA (real-time PCR), HEK293 cells without PLZF overexpression [4]: 30.2 % increase
- PI3K-p85α mRNA after 3 hours, 5 nM renin, HEK293 cells (% of vehicle control) [4]: 172
- PI3K-p85α promoter activity (luciferase reporter) in PLZF-overexpressing HEK293 cells [4]: 45 % increase
- PLZF recruitment to the RER promoter (ChIP with real-time PCR) in HEK293 cells [4]: 6 fold
- RER mRNA (real-time PCR) in HEK293 cells after renin stimulation combined with PLZF transfection [4]: 45.4 % of control
- RER mRNA (real-time PCR) in HEK293 cells after renin stimulation, without PLZF overexpression [4]: 80.6 % of control
- RER mRNA after 3 hours, 5 nM renin, HEK293 cells (% of vehicle control) [4]: 59.2
- RER promoter activity (luciferase reporter) in PLZF-overexpressing HEK293 cells [4]: 30 % decrease
- caspase 3/7 activity after 24 hours, 5 nM renin, HEK293 cells [4]: 31 % decrease
- RER mRNA (first column set to 100%) ([5]; HEK293 cells with PLZF overexpression (pCEP4-PLZF) plus renin stimulation): 45.4±4.7%
- RER mRNA (first column set to 100%) ([5]; HEK293 cells without PLZF overexpression, renin stimulation vs vehicle): 80.6±3.3%
- RER mRNA, % of vehicle control [5, 11]: 59.2%
